# System: MS2 coat protein
# Test: apparent KD of MS2 coat protein; designed switch direction (-1 OFF switch, 1 ON switch): -1; higher = weaker reporter binding
# Outline: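 Transcription of designed RNA switches on Illumina chips was done by stalled E. coli RNA polymerase. SNAP-549-labelled MS2 coat protein was then titrated in doubling steps from 0.7 or 1.5 nM to 3 µM, with steps of 0.8–1.5 h at the lowest and 10–20 min at the highest concentration. The per-design median over clusters of curve-fitted normalised fluorescence is reported as apparent KD.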
# [1] = Eterna round: R95, input ligand: microRNA oligo, concentration not stated
# [2] = input ligand: microRNA oligo, concentration not stated
Sequence,"apparent KD of MS2 coat protein (Eterna round: R95, input ligand: FMN 200 uM) [nM]",apparent KD of MS2 coat protein [1] [nM],"apparent KD of MS2 coat protein (Eterna round: R95, input ligand: none) [nM]",apparent KD of MS2 coat protein (input ligand: FMN 200 uM) [nM],apparent KD of MS2 coat protein [2] [nM],apparent KD of MS2 coat protein (input ligand: none) [nM]
"GCGAAAGCAAACAAGUGAAACAUGAGGAUCACCCAUGUCCUCAUUUGCUCGUCUUAUAAGCUAUGCGAAAGCAUAGC [Sensor 3, v1 - 6] (puzzle: Sensor v3, turn-off variant 1)",38,269,41.6,–,–,–
"GCGCACCUACCAAAAGGUAGGUCAACAUGAGGAUCACCCAUGUAGGAUAUCGAUUGCUUUGCAGUCGAGAAGGGCAUGAUGCGC [JL ENG3 3.80 Mod 14] (Eterna round: R96, puzzle: Exclusion NG 3)",–,–,–,59.1,36.6,44.2
"GCGCCAUCGUGAGAUGGCGUAAUUACAUGAGGAUCACCCAUGUAGGAUAUCGAUUGCUUUGCAGUCGAGAAGGGCAUGUUUUGU [JL ENG3 3.85] (Eterna round: R96, puzzle: Exclusion NG 3)",–,–,–,33.3,26.4,31.5
"GCGCGAAGCAAGGAUAUCCCAGGGAGCUCCCUGGGAGAAGGUGCCACAUGAGGAUCACCCAUGUGGUGAUCCUG [eternacac ex6r4 sub16] (Eterna round: R97, puzzle: Exclusion 6)",–,–,–,25.6,–,17.7
"GCGCUGCGAGGAUAUACAUGAGGAUCACCCAUGUGUCGGCAGCCAUGGUAGUACAAAUGUAGAAGGCGCGUAAA [EX3 #51] (Eterna round: R97, puzzle: Exclusion 3)",–,–,–,202,–,165
"GCGGACUAGUACGUGAGUACUGAGACAUGAGGAUCACCCAUGUAGGAUAUCGAUUCGAAACGAAUCGAGAAGGGCAUAGUCCGC [JL denovo 10] (Eterna round: R96, puzzle: Exclusion NG 3)",–,–,–,19.7,18.9,21.2
"GCGGACUGGAUCGUGAGAUCCGAGACAUGAGGAUCACCCAUGUAGGAUAUCGAUUGCUUUGCAGUCGAGAAGGGCGUGGUCCGC [JL denovo 16] (Eterna round: R96, puzzle: Exclusion NG 3)",–,–,–,54.6,44.9,59.3
"GCGGAGUGAGGAUAUAGAACUUAAGGUACCAAUUAGGUACCCUAGAAGGCACAUGAGGAUCACCCAUGUACCGC [Eli x4 4.01] (Eterna round: R97, puzzle: Exclusion 4)",–,–,–,26.5,–,28.6
"GCGGGAUAGCAAGGAUAUCCCGAGUCGCAAGGAAACAUCCACAUGAGGAUCACCCAUGUGGCUCUGGAGAAGGUGCGACGCAAA [Onveceanti] (Eterna round: R96, puzzle: Exclusion NG 2)",–,–,–,10.3,9.8,13.4
"GCGGGCUUUUUGCUCGUUUACAUGAGGAUCACCCAUGUGUCUUCGCGCCCGGGCCCGGGCGGGCCCGGGCCCGGGCG [-52.3, -76.4, A 8%] (Eterna round: R97, puzzle: Sensor, turn-off variant 1)",–,–,–,36.1,–,41.5
"GCGGGUUUUUUGUUCGUUUACAUGAGGAUCACCCAUGUGUCUUCGCGUUCGGGUUCGGGCGGGCUUGGGCUUGGGCG [-26.2, -50.6, A 8%] (Eterna round: R97, puzzle: Sensor, turn-off variant 1)",–,–,–,47.4,–,47.8
GCGUGACAUGAGGAUCACCCAUGUGAGGAUAUCUGGACACUCUUUAUUUUAGAUGUCCAGAGAAGGCACAUGCU [Ex1-3: 5Z] (puzzle: Exclusion 1),–,220,–,–,–,–
"GCGUGGGCCGCAGGAUAUGAGGCCGUGGGUUCACCCAAACACACAUGAGGAUCACCCAUGUGUCAUCAGAAGGGCGAGCCUACU [Sozasora] (Eterna round: R96, puzzle: Exclusion NG 2)",–,–,–,18.9,17.5,21.4
"GCUAGACAUGUCAGGAUAUGCUGUACCUUGGUACAGCAGAAGGGACAUGAGGAUCACCCAUGUGCCUAUCUAGC [JL-BMX4-4.05] (Eterna round: R97, puzzle: Brourd's mod of Exclusion 4)",–,–,–,308,–,43.6
"GCUAGCCAUGUCAGGAUAUGCUGUACCUUGGUACAGCAGAAGGGACAUGAGGAUCACCCAUGUGCCUAGCUAGC [JL-BMX4-4.03] (Eterna round: R97, puzzle: Brourd's mod of Exclusion 4)",–,–,–,197,–,27.1
"GCUAGUCAUGUCAGGAUAUGCAGAACCUUGGUUCUGCAGAAGGGACAUGAGGAUCACCCAUGUGCCUAACUAGC [Mat - Exclusion 4 - JL Mod - D15] (Eterna round: R97, puzzle: Brourd's mod of Exclusion 4)",–,–,–,294,–,40.3
"GCUAGUCAUGUCAGGAUAUGCUGUACCUUGGUACAGCAGAAGGGACAUGAGGAUCACCCAUGUGCCUAGCUAGC [JL-BMX4-4.07] (Eterna round: R97, puzzle: Brourd's mod of Exclusion 4)",–,–,–,412,–,37.7
"GCUAUUAGAGGAUAUACAUGAGGAUCACCCAUGUGGUCAAGUCGGUGCCAACUGUUAGGUAGAAGGCUGGAGCC [Eternabot (L1) Solution 76] (Eterna round: R97, puzzle: Exclusion 3)",–,–,–,44.8,–,49.7
"GCUCGUGGGCAAGGAUAUCCUACGCUGUUCUGGUUCGUGUCUGUUACAUGAGGAUCACCCAUGUGGGAGAAGGUGCACCAGGGU [Design 50] (Eterna round: R96, puzzle: Exclusion NG 2)",–,–,–,22.8,12.3,18.3
"GCUCGUUUUGUCAGGAUAUUGAGUCAGCUUAAGCUCGAGAAGGGACAUGAGGAUCACCCAUGUACCGCACAAUU [BmEX4 B.29] (Eterna round: R97, puzzle: Brourd's mod of Exclusion 4)",–,–,–,16.3,–,11.1
"GCUGCAAGAGGAUAUACAUGAGGAUCACCCAUGUGGGAUCGCGUUCUGGAUCAGGACUGUAGAAGGUUUGUGCG [Eternabot (L1) Solution 63] (Eterna round: R97, puzzle: Exclusion 3)",–,–,–,286,–,91.3
"GCUGGACAAGGAUAUGCAAUCGUGCUUCGGCACGUAAGAUCACAUGAGGAUCACCCAUGUAGAAGGUGUCCAGC [E2/3-C2] (Eterna round: R97, puzzle: Exclusion 2)",–,–,–,62.5,–,24
